Here are results for 77 sequences from the supplement of paper PMC7877785.

The series can be described thus: self-splicing fitness, log relative to wild type (ln ratio); higher = more splicing; Tetrahymena group I intron in knt gene, E. coli kanamycin selection, DiMSum; sequences stand for … in CUCUCU…GGAGGGAAAAGUUAUCAGGCAUGCACCUGGUAGCUAGUCUUUAAACCAAUAGAUUGCAUCGGUUUAAAAGGCAAGACCGUCAAAUUGCGGGAAAGGGGUCAACAGCCGUUCAGUACCAAGUCUCAGGGGAAACUUUGAGAUGGCCUUGCAAAGGGUAUGGUAAUAAGCUGACGGACAUGGUCCUAACCACGCAGCCAAGUCCUAAGUCAACAGAUCUUCUGUUGAUAUGGAUGCAGUUCACAGACUAAAUGUCGGUCGGGGAAGAUGUAUUCUUCUCAUAAGAUAUAGUCGGACCUCUCCUUAAUGGGAGCUAGCGGAUGAAGUGAUGCAACACUGGAGCCGCUGGGAACUAAUUUGUAUGCGAAAGUAUAUUGAUUAGUUUUGGAGUACUCGUGGUCG
The essentials: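 Fitness was computed with DiMSum as the error-weighted combination of replicate fold changes, kanamycin versus none, each normalised to wild type. The library randomised all eight intron nucleotides of the P1ex region, with the intron placed in the knt kanamycin-resistance gene on pET-22b(+) in E. coli BL21(DE3). Six replicate transformations were grown overnight at 37°C or 30°C on LB agar with or without 25 μg/mL kanamycin, plus 100 μg/mL carbenicillin, 50 μM IPTG and 0.2% rhamnose. Pooled colonies were amplicon-sequenced on an Illumina HiSeq 2500.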

± gives the uncertainty stated by the source.

Turning to CAAUAGCAAUAUUACGUGCG, the “self-splicing fitness (ln)” value is, setting by setting: (30 °C) -0.75 ± 0.072; (37 °C) -0.0882 ± 0.08. For CAAUAGCAAUAUUACGUUCA, the “self-splicing fitness (ln)” value is -3.43 ± 0.25 (30 °C) and -2.59 ± 0.24 (37 °C).

In the case of CACAAGCAAUAUUACGAAUC, the “self-splicing fitness (ln)” value was -4.04 ± 0.46 (30 °C) and -2.37 ± 0.18 (37 °C). Taken in the same sequence, the figures for CACAAGCAAUAUUACGAGUA were -1.9 ± 0.085 and -0.487 ± 0.078. Taken in the same sequence, the figures for CACAAGCAAUAUUACGCCGG were -0.875 ± 0.081 and -0.35 ± 0.095. For CACAAGCAAUAUUACGCCUC, in that order: -2.86 ± 0.2 and -1.95 ± 0.23. As to CACAAGCAAUAUUACGCUGC, the “self-splicing fitness (ln)” value reads like this: (30 °C) -5.23 ± 0.32; (37 °C) -2.87 ± 0.21.

With CACAAGCAAUAUUACGGAGA, the “self-splicing fitness (ln)” value (30 °C) is -3.31 ± 0.17 and the “self-splicing fitness (ln)” value (37 °C) is -2.65 ± 0.2.

As for CACAAGCAAUAUUACGGAUG, the “self-splicing fitness (ln)” value is, setting by setting: (30 °C) -2.59 ± 0.095; (37 °C) -0.904 ± 0.087. Taken in the same sequence, the figures for CACAAGCAAUAUUACGGCGG were -0.406 ± 0.042 and -0.181 ± 0.052. As to CACAAGCAAUAUUACGGGAC, the “self-splicing fitness (ln)” value is, setting by setting: (30 °C) -3.48 ± 0.19; (37 °C) -2.86 ± 0.2. On to CACAAGCAAUAUUACGGGUU, for which the “self-splicing fitness (ln)” value is -2.26 ± 0.068 (30 °C) and -1.52 ± 0.083 (37 °C). For CACAAGCAAUAUUACGUCAU, in that order: -3.45 ± 0.14 and -2.78 ± 0.15.

Consider CACCAGCAAUAUUACGAAAC, for which, for the setting “37 °C”, the “self-splicing fitness (ln)” value was -2.12 ± 0.31. Take CACCAGCAAUAUUACGACAG: the “self-splicing fitness (ln)” value by setting is: (30 °C) 0.251 ± 0.06; (37 °C) 0.634 ± 0.083. For CACCAGCAAUAUUACGACCU, in that order: -3.45 ± 0.17 and -1.35 ± 0.17. Taken in the same sequence, the figures for CACCAGCAAUAUUACGACGG were -0.253 ± 0.078 and 0.0217 ± 0.091. Taken in the same sequence, the figures for CACCAGCAAUAUUACGAGCG were -0.154 ± 0.066 and 0.288 ± 0.086. Take CACCAGCAAUAUUACGAGUG: the “self-splicing fitness (ln)” value is, setting by setting: (30 °C) -4.21 ± 0.18; (37 °C) -2.76 ± 0.17. As to CACCAGCAAUAUUACGCCGG, the “self-splicing fitness (ln)” value by setting is: (30 °C) -2.23 ± 0.15; (37 °C) -0.937 ± 0.14. Taken in the same sequence, the figures for CACCAGCAAUAUUACGCGAC were -4.31 ± 0.2 and -2.89 ± 0.23. Taken in the same sequence, the figures for CACCAGCAAUAUUACGCGGG were -3.44 ± 0.16 and -2.4 ± 0.15. Taken in the same sequence, the figures for CACCAGCAAUAUUACGCGUA were -0.717 ± 0.061 and -0.165 ± 0.066. On to CACCAGCAAUAUUACGCGUU, for which the “self-splicing fitness (ln)” value by setting is: (30 °C) -2.15 ± 0.062; (37 °C) -0.539 ± 0.067. For CACCAGCAAUAUUACGGACU, in that order: -2.98 ± 0.11 and -2 ± 0.11.

On to CACCAGCAAUAUUACGGAGC, for which the “self-splicing fitness (ln)” value is -2.79 ± 0.13 (30 °C) and -1.58 ± 0.13 (37 °C). For CACCAGCAAUAUUACGGCUU, in that order: -1.91 ± 0.087 and -0.758 ± 0.093. For CACCAGCAAUAUUACGGGCG, in that order: -1.81 ± 0.053 and -0.295 ± 0.065. For CACCAGCAAUAUUACGGUUC, in that order: -2.02 ± 0.065 and -1.25 ± 0.085. In the case of CACCAGCAAUAUUACGUCAA, the “self-splicing fitness (ln)” value by setting is: (30 °C) -3.64 ± 0.42; (37 °C) -2.31 ± 0.19. For CACCAGCAAUAUUACGUGUC, the “self-splicing fitness (ln)” value (30 °C) is -3.8 ± 0.09 and the “self-splicing fitness (ln)” value (37 °C) is -3.28 ± 0.11. For CACCAGCAAUAUUACGUUGU, in that order: -3.58 ± 0.14 and -2.29 ± 0.14. As for CACGAGCAAUAUUACGAAGC, under “37 °C”, the “self-splicing fitness (ln)” value is -1.41 ± 0.26. As to CACGAGCAAUAUUACGCAUU, the “self-splicing fitness (ln)” value was -4.65 ± 0.41 (30 °C) and -1.95 ± 0.3 (37 °C). For CACGAGCAAUAUUACGCCUC, in that order: -3.79 ± 0.26 and -1.37 ± 0.23. For CACGAGCAAUAUUACGCCUU, in that order: -2.3 ± 0.2 and -2.76 ± 0.4. Taken in the same sequence, the figures for CACGAGCAAUAUUACGCGAA were -2.93 ± 0.28 and -2.1 ± 0.26. In the case of CACGAGCAAUAUUACGGACU, the “self-splicing fitness (ln)” value runs as follows: (30 °C) -3.12 ± 0.22; (37 °C) -1.44 ± 0.25. Take CACGAGCAAUAUUACGGAUU: the “self-splicing fitness (ln)” value (30 °C) was -3.86 ± 0.3 and the “self-splicing fitness (ln)” value (37 °C) is -2.47 ± 0.26.

CACGAGCAAUAUUACGGUGA: the “self-splicing fitness (ln)” value reads like this: (30 °C) -3.17 ± 0.23; (37 °C) -2.98 ± 0.19.

CACGAGCAAUAUUACGUAAG: the “self-splicing fitness (ln)” value reads like this: (30 °C) -3.62 ± 0.14; (37 °C) -1.82 ± 0.11. Taken in the same sequence, the figures for CACGAGCAAUAUUACGUAAU were -3.8 ± 0.39 and -2 ± 0.27. With CACGAGCAAUAUUACGUGCA, the “self-splicing fitness (ln)” value by setting is: (30 °C) -3.55 ± 0.18; (37 °C) -3.24 ± 0.23. For CACUAGCAAUAUUACGAACG, in that order: -0.448 ± 0.071 and 0.647 ± 0.11. With CACUAGCAAUAUUACGAAGG, the “self-splicing fitness (ln)” value (30 °C) is -1.65 ± 0.1 and the “self-splicing fitness (ln)” value (37 °C) is -0.781 ± 0.15. For CACUAGCAAUAUUACGACAC, in that order: -2.65 ± 0.22 and -1.69 ± 0.24. Taken in the same sequence, the figures for CACUAGCAAUAUUACGACAU were -3.209 ± 0.019 and -1.97 ± 0.034. For CACUAGCAAUAUUACGACUC, in that order: -1.68 ± 0.21 and -2.63 ± 0.36.

For CACUAGCAAUAUUACGAGAC, the “self-splicing fitness (ln)” value (30 °C) is -3.77 ± 0.46.

As to CACUAGCAAUAUUACGAUAC, the “self-splicing fitness (ln)” value reads like this: (30 °C) -3.41 ± 0.28; (37 °C) -2.81 ± 0.38. For CACUAGCAAUAUUACGAUAU, in that order: -4.57 ± 0.34 and -2.17 ± 0.2. In the case of CACUAGCAAUAUUACGAUGA, the “self-splicing fitness (ln)” value (30 °C) was -1.85 ± 0.16 and the “self-splicing fitness (ln)” value (37 °C) was -1.01 ± 0.14. For CACUAGCAAUAUUACGCAAU, in that order: -1.48 ± 0.15 and -3.09 ± 0.35.

With CACUAGCAAUAUUACGCAUA, the “self-splicing fitness (ln)” value was -2.75 ± 0.2 (30 °C) and -2.83 ± 0.24 (37 °C). Taken in the same sequence, the figures for CACUAGCAAUAUUACGCAUC were -4.23 ± 0.43 and -3.53 ± 0.37. Taken in the same sequence, the figures for CACUAGCAAUAUUACGCCCC were -0.891 ± 0.38 and -0.252 ± 0.47.

Turning to CACUAGCAAUAUUACGCCGC, the “self-splicing fitness (ln)” value (37 °C) is -2.58 ± 0.5. Take CACUAGCAAUAUUACGCCUG: the “self-splicing fitness (ln)” value (30 °C) is -0.103 ± 0.15 and the “self-splicing fitness (ln)” value (37 °C) was -0.344 ± 0.14. On to CACUAGCAAUAUUACGCUAG, for which the “self-splicing fitness (ln)” value (30 °C) was -3.17 ± 0.26 and the “self-splicing fitness (ln)” value (37 °C) was -2.41 ± 0.27.

On to CACUAGCAAUAUUACGCUAU, for which the “self-splicing fitness (ln)” value was -3.92 ± 0.3 (30 °C) and -2.38 ± 0.23 (37 °C). Taken in the same sequence, the figures for CACUAGCAAUAUUACGCUGA were -2.58 ± 0.23 and -1.51 ± 0.19. For CACUAGCAAUAUUACGCUUC, in that order: -3.74 ± 0.3 and -3.2 ± 0.4.

For the sequence CACUAGCAAUAUUACGCUUU, the “self-splicing fitness (ln)” value was -4.28 ± 0.42 (30 °C) and -1.57 ± 0.2 (37 °C). CACUAGCAAUAUUACGGAGA: the “self-splicing fitness (ln)” value (37 °C) was -2.39 ± 0.22. For CACUAGCAAUAUUACGGAUC, under “30 °C”, the “self-splicing fitness (ln)” value was -1.79 ± 0.19. In the case of CACUAGCAAUAUUACGGCAG, the “self-splicing fitness (ln)” value (30 °C) is -0.257 ± 0.049 and the “self-splicing fitness (ln)” value (37 °C) came to 0.189 ± 0.066.

Regarding CACUAGCAAUAUUACGGGCA, the “self-splicing fitness (ln)” value was -1.91 ± 0.21 (30 °C) and -1.71 ± 0.21 (37 °C). Taken in the same sequence, the figures for CACUAGCAAUAUUACGGGCU were -4.24 ± 0.39 and -3.52 ± 0.33. Taken in the same sequence, the figures for CACUAGCAAUAUUACGGGUU were -2.05 ± 0.076 and -1.28 ± 0.095.

Consider CACUAGCAAUAUUACGGUAG, for which the “self-splicing fitness (ln)” value was -1.99 ± 0.1 (30 °C) and -0.969 ± 0.094 (37 °C).

CACUAGCAAUAUUACGGUGG: the “self-splicing fitness (ln)” value reads like this: (30 °C) -2.3 ± 0.067; (37 °C) -0.616 ± 0.075. Taken in the same sequence, the figures for CACUAGCAAUAUUACGGUUG were -1.98 ± 0.087 and -1.38 ± 0.098. In the case of CACUAGCAAUAUUACGUAAU, the “self-splicing fitness (ln)” value reads like this: (30 °C) -3.08 ± 0.22; (37 °C) -2.54 ± 0.2.

In the case of CACUAGCAAUAUUACGUAUG, the “self-splicing fitness (ln)” value (30 °C) was -1.82 ± 0.061 and the “self-splicing fitness (ln)” value (37 °C) was -0.818 ± 0.068. For CACUAGCAAUAUUACGUCCC, in that order: -2.5 ± 0.34 and -2.38 ± 0.33. Taken in the same sequence, the figures for CACUAGCAAUAUUACGUGGA were -3.76 ± 0.32 and -2.44 ± 0.14. Taken in the same sequence, the figures for CACUAGCAAUAUUACGUGGG were -3.99 ± 0.2 and -3.1 ± 0.22.
